Measured values published in US20120014911.

What was measured:
[1] = target: T1, GST-IFNAR1 (wild type): bacterially expressed cytoplasmic domain of IFNAR1 fused with GST (UniProt P17181)
T1 sequence: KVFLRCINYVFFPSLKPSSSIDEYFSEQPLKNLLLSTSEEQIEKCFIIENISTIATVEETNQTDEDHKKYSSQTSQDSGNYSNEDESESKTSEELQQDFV

[2] = target: T2, recombinant PKD2 used as substrate of Tyk2 and Src (UniProt Q9BZL6)
T2 sequence: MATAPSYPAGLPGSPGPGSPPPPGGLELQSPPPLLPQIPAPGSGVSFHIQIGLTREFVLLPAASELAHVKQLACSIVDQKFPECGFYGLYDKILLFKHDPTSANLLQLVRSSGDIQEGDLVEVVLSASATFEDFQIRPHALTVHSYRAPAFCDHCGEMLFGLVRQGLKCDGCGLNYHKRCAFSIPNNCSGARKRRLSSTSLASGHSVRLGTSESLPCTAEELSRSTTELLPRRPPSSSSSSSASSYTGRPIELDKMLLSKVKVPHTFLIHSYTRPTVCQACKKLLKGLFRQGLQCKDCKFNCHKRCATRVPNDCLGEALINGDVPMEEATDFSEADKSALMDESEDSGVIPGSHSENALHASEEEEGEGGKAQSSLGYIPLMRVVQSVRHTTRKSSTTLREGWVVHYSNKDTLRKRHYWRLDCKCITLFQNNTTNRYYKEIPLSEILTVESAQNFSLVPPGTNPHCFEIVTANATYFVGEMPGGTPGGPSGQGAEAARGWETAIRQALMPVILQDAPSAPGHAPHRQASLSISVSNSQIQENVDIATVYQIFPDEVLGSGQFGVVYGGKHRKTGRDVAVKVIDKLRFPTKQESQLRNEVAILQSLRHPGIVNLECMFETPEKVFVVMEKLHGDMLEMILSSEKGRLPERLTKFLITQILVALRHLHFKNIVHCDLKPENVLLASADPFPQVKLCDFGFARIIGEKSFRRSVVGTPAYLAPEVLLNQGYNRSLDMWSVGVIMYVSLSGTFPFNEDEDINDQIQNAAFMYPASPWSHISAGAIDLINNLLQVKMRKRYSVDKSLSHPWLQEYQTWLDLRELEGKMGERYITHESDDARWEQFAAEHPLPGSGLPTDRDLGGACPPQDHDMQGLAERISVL

[3] = test system: purified recombinant Nrf2-Neh2 domain S40A
[4] = test system: purified recombinant Nrf2-Neh2 domain (wild type)
[5] = test system: purified recombinant Nrf2-Neh2 domain T80A

Substance: GST-tagged PKD2 kinase-dead K580N mutant
- in vitro phosphorylation of GST-IFNAR1 on Ser535 (immunoblot with anti-pS535) [1]: Ser535 phosphorylation on GST-IFNAR1 incubated with ATP and GST-PKD2 was not evident when a catalytically deficient (kinase-dead, KD) K580N mutant was used in the reaction

Substance: HA-tagged Leishmania major CK1 (L-CK1) immunopurified from 293T cells
- immunokinase assay: phosphorylation of GST-IFNAR1 on Ser535 [1]: immunopurified human CK18, CK1E, and protozoan parasite L-CK1 were active against IFNAR1S535 in the immunokinase assay in vitro

Substance: HA-tagged Tyk2 immunopurified from cells
- in vitro tyrosine phosphorylation of PKD2 (immunoblot with anti-phospho-Tyr antibody) [2]: A robust increase in Tyr phosphorylation of PKD2 was seen when HA-Tyk2 was purified from IFN-a-treated cells

Substance: Myc-tagged human CK1δ immunopurified from 293T cells
- immunokinase assay: phosphorylation of GST-IFNAR1 on Ser535 [1]: immunopurified human CK18, CK1E, and protozoan parasite L-CK1 were active against IFNAR1S535 in the immunokinase assay in vitro

Substance: bacterially produced recombinant GST-CK1α
- in vitro phosphorylation of GST-IFNAR1 on Ser535 and Ser532 (immunoblot with phospho-specific antibodies) [1]: Incubation of recombinant CKla with wild type GST-IFNAR1 substrate and ATP in vitro resulted in phosphorylation of Ser535 but not of Ser532

Substance: recombinant Src (purchased from Cell Signaling)
- in vitro tyrosine phosphorylation of PKD2 (immunoblot with anti-phospho-Tyr antibody) [2]: tyrosine phosphorylation of PKD2 was easily detected when recombinant Sre protein was used as positive control

Substance: recombinant bacterially produced constitutively active ΔN-PERK
- in vitro kinase assay, autoradiography [3]: Purified recombinant PERK phosphorylated wild type Nrf2-Neh2 and a serine 40 to alanine mutant; however, mutation of threonine 80 to alanine abrogated phosphorylation
- in vitro kinase assay [1]: activated PERK was not capable of phosphorylating IFNAR1 in vitro
- in vitro kinase assay, autoradiography [4]: Purified recombinant PERK phosphorylated wild type Nrf2-Neh2 and a serine 40 to alanine mutant; however, mutation of threonine 80 to alanine abrogated phosphorylation
- in vitro kinase assay, autoradiography [5]: mutation of threonine 80 to alanine abrogated phosphorylation
